Experiment [1] deals with T1, human recombinant PAD4 (hrPAD4) (human, UniProt Q9UM07 1-663).
T1 construct: Recombinant, provided by Ger Pruijn; also called hPAD4; human PAD4
Briefly: indirect ELISA, hrPAD4 coat 50 ng/mL. (An ELISA detects its analyte on a solid surface through an enzyme-linked reagent.)

Experiment [2] addresses T2, Peptidylarginine Deiminase isolated from rabbit skeletal muscle (rPAD2) (rabbit, UniProt P20717 1-665 (rat entry), limits assumed).
T2 construct: Bought (Sigma-Aldrich), isolated from rabbit skeletal muscle; also called Rabbit PAD2; rabbit PAD2
T2 chain: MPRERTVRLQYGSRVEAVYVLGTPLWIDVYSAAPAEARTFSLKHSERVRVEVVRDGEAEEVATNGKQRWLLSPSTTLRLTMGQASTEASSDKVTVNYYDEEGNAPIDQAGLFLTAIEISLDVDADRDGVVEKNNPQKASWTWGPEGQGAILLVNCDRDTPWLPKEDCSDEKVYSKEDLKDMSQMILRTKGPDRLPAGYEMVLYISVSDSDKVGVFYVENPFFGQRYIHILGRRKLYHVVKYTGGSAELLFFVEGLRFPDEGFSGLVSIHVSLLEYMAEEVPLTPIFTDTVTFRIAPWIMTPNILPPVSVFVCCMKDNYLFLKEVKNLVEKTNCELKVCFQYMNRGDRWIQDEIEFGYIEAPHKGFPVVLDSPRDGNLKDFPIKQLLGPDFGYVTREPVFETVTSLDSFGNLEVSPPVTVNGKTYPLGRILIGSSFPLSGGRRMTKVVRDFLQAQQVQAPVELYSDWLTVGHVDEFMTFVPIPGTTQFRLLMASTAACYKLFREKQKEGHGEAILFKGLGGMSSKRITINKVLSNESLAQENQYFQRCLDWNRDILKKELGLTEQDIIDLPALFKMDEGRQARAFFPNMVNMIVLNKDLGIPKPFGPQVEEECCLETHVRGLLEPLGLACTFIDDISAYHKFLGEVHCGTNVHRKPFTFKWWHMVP
The experiment can be described thus: western blotting, rPAD2. The procedure: FIG. 2. mAbs (monoclonal antibodies) reacting with rPAD2 in western blotting. Culture supernatants from mAbs #1-30, an irrelevant mAb (A) and no mAb (B) were tested 1:1 in diluting buffer against 1 μg/mL rabbit PAD2-unreduced. Rabbit anti mouse IgG (diluted 1:1000) was added, 1 h/RT. Development was performed in carbazole staining solution. Molecular weight markers (kDa) are indicated in the middle of the blot with Novex® Sharp Pre stained Protein Standard. A 4-12% Bis-Tris zoom gel was used.
(§1) Different samples were loaded in gels (same procedure as SDS-PAGE) along with a pre-stained marker. […] The membrane was blocked in wash buffer and sliced into strips. Antibody culture supernatant (2 mL) was added 1:1 in diluting buffer and incubated 0/N at 4° C. HRP-conjugated rabbit anti mouse IgG was added 1:3000 followed by incubation 1 h/RT. Finally, the strips were washed, incubated 10 min in acetate buffer (50 mM CH3COOH, 33.75 mM NaOH, pH 5.0) and stained in carbazole staining solution (0.04% 3-amino-9-ethylcarbazole and 0.015% H2O2) in acetate buffer. Antibodies with affinity against the target protein were observed as red bands, and the approximate size could be held against the marker loaded on the gel.

The target in experiment [3] is T3, N165 (from amino acid 165 to the C-terminus) (human, UniProt Q9Y2J8 165-665).
T3 construct: also called N165 splice variant
Briefly: western blotting. On the procedure:
as §1
(§2) Different splice variants of PAD2 were evaluated by western blotting.

Experiment [4] has as its target N343 (from amino acid 343 to the C-terminus) (human, UniProt Q9Y2J8 343-665). The experiment can be described thus: western blotting. The procedure:
as §1, §2
For orientation: In western blotting, separated proteins are transferred to a membrane and probed.

Changes are numbered by the printed parent chain.

T1 sequence (Q9UM07 whole entry): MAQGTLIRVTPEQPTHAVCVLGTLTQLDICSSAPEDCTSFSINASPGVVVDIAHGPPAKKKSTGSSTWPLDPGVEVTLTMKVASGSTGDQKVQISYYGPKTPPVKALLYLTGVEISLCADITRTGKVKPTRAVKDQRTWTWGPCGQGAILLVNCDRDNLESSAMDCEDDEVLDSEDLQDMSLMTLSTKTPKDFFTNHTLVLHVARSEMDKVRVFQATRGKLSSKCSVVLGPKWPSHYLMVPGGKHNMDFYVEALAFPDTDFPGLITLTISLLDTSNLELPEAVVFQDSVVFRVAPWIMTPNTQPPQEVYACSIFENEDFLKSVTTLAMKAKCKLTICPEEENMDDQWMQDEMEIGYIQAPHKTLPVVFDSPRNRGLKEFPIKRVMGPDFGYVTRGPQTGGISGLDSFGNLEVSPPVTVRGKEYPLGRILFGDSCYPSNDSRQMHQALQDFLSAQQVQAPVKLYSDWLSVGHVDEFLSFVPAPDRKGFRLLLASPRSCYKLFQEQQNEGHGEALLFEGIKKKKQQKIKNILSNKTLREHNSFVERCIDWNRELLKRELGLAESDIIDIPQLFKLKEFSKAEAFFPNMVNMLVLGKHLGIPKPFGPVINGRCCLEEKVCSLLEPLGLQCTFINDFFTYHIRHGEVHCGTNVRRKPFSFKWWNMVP
Sequence of N343 (from amino acid 343 to the C-terminus) (Q9Y2J8 343-665): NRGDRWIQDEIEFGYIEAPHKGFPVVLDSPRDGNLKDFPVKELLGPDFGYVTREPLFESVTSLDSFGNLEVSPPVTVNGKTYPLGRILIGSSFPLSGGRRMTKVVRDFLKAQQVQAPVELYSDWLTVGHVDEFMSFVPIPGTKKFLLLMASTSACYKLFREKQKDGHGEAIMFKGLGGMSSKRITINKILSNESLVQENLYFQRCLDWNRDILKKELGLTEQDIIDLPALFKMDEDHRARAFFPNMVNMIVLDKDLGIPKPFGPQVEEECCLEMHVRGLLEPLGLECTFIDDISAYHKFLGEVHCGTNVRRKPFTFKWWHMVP
T3 sequence (Q9Y2J8 165-665): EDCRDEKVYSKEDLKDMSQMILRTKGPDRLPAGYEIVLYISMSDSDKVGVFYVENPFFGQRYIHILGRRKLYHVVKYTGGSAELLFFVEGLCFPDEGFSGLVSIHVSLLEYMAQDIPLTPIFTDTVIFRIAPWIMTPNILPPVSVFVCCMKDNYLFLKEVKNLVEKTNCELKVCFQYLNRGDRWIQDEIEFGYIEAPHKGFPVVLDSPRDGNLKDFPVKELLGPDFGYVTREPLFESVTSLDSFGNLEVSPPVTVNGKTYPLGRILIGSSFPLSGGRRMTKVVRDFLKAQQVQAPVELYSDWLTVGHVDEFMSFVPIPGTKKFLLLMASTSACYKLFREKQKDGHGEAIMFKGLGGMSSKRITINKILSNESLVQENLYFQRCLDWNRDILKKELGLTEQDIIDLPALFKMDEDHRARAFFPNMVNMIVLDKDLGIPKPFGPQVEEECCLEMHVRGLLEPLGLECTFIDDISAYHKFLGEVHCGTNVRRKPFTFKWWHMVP

B1: mAb #2 (antibody, V domains shown)
VH: QVQLQQPGAELVRPGASVKLSCKASGYTFTSYWMNWVKQRPGQGLEWIGMIDPSDSESYYNQMFKDKATLTVDKSSSTAYMQLSRLTSEDSAVYYCARKDYYAYGGAMDYWGQGTSVTVSS
VL: QIVLTQSPAILSASLGEEITLTCSANSSARYMHWYQQKSGTSPKLLIYSTSNLASGVPSRFSGSGSGTFYSLTLSSVEAEDAADYYCHQWSGYPTFGGGTKLEIKR
notes: Mouse IgG monoclonal antibody, unknown subtype; raised against rabbit PAD2
As for B1, the binding result was “no binding” in experiment [1], “binds” in experiment [2], “no binding” in experiment [3] and “no binding” in experiment [4].

B2: mAb #6 (antibody, V domains shown)
VH: EVQLQQSGPDLVKPGASVKISCKASGYSFTAYYMHWVKQSHGESLEWIGRVNPNNGGSSYNQKFKGKAILTVHKSSNTAYMELRSLTSEDSAVYFCARGDYLPSLGYWGQGTSVTVSS
VL: DIVMTQSQKFMSTSVGDRVSVTCKASQNVDTTVAWYQQKPGQSPKALIYSASYRYSGVPDRFTGSGSGTDFTLTVTNVQSEDLAEYFCQQYDSYPFTFGSGTKLEIK
notes: as for B1
B2: the binding result in experiment [1] and in experiment [4] was “no binding” each time.

B3: mAb #34 (antibody, V domains shown)
VH: EVQLQQSGPDLVKPGASVKISCKASGYSFTSYYMHWVKQSHGKSLEWIGRVNPNSGYTTYNQKFKGKAILTVDKSSSTAYMELRSLTSEDSAVYYCARGDYLPSMDYWGHGTSVTVSS
VL: B2 VL with I2F, V21I, D30G, T32N, A46G, V75I, T76S, Y91F, D92N
notes: as for B1
Take B3: the binding result in experiment [1] and in experiment [4] was “no binding” throughout.
